Some targets named below: DLG4_1, P78352; TJP1_2, Q07157; GIPC2, Q8TF65; LIMK2, P53671; PDZRN4_1, Q6ZMN7; IL16_1, Q14005; HTRA2, O43464; SCRIB_2, Q14160; MAST1, Q9Y2H9; PARD3_3, Q8TEW0; LNX1_2, Q8TBB1.
Common to all, as to experiment: holdup assay
Holding throughout (parameters): key: below the threshold = too weak to quantify, mostly under pKd 3.1 to 4

A further assay concerns the target T1, RAPGEF6, Q8TEU7.
T1 sequence (Q8TEU7 525-625, limits assumed, looked up): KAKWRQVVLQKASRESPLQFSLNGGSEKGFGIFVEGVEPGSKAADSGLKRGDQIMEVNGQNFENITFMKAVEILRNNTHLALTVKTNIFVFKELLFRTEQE

The next assay has as its target T2, NHERF3_3, Q5T2W1.
T2 sequence (Q5T2W1 238-333, limits assumed, looked up): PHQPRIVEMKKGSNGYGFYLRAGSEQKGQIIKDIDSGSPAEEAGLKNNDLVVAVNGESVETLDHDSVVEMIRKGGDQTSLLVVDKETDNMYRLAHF

A further assay addresses T3, SNTA1, Q13424.
T3 sequence (Q13424 82-180, limits assumed, looked up): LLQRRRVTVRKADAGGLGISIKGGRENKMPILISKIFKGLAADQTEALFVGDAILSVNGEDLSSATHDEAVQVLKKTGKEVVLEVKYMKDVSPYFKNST

The target of a further assay is T4, CARD11, Q9BXL7.
T4 sequence (Q9BXL7 662-765, limits assumed, looked up): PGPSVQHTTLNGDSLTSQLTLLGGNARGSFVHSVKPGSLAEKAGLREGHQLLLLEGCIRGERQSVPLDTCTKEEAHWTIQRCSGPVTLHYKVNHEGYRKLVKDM

The next assay addresses T5, SHANK1, Q9Y566.
T5 sequence (Q9Y566 658-767, limits assumed, looked up): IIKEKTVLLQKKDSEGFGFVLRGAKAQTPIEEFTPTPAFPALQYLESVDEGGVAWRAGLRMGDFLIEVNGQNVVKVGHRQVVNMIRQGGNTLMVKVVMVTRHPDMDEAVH

Another assay has as its target T6, NHERF3_1, Q5T2W1.
T6 sequence (Q5T2W1 4-100, limits assumed, looked up): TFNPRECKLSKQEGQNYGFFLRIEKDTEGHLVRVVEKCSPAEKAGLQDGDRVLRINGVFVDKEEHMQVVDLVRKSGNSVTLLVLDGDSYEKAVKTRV

Another assay deals with T7, TIAM2, Q8IVF5.
T7 sequence (Q8IVF5 885-986, limits assumed, looked up): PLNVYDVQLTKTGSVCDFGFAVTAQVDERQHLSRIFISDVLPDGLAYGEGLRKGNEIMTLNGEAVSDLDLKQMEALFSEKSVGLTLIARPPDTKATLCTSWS

The next assay has as its target T8, DLG3_2, Q92796.
T8 sequence (Q92796 221-321, limits assumed, looked up): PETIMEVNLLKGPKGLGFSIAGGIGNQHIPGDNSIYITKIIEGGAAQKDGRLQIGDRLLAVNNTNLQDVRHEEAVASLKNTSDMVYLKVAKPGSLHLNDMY

For a further assay, the target named is T9, DLG3_3, Q92796.
T9 sequence (Q92796 374-475, limits assumed, looked up): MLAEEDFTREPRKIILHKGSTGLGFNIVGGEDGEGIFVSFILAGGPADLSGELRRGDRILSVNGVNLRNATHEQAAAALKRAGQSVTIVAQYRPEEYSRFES

The target in the next assay is T10, SNTB1, Q13884.
T10 sequence (Q13884 107-205, limits assumed, looked up): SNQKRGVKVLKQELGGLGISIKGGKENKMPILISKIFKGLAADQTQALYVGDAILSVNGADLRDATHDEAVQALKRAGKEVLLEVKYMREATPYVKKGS

For a further assay, the target named is T11, DLG3_1, Q92796.
T11 sequence (Q92796 125-227, limits assumed, looked up): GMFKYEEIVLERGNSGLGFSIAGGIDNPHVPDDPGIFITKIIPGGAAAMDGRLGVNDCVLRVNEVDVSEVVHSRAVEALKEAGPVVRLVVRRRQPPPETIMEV

A further assay has as its target T12, SIPA1L2, Q9P2F8.
T12 sequence (Q9P2F8 945-1036, limits assumed, looked up): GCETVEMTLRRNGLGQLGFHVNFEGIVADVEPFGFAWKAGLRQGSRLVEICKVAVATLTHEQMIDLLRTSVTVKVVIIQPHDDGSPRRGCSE

The next assay deals with T13, DFNB31_2, Q9P202.
T13 sequence (Q9P202 274-371, limits assumed, looked up): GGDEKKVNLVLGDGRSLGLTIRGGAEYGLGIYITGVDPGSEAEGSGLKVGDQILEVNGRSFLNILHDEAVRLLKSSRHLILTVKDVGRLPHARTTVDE

[1] abbreviates: plain residues with an end cap or a label only (N-terminal biotin on a linker: ado-ado).
The mark [2] stands for this setting: plain residues with an end cap or a label only (N-terminal biotin on a linker: ttds).
[3] abbreviates: plain residues with an end cap or a label only (N-terminal biotin on a linker: ahx).

Sequence of MAST1, Q9Y2H9 (Q9Y2H9 962-1065): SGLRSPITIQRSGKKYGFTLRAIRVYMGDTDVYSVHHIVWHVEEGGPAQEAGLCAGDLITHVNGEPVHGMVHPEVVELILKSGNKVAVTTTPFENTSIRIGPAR
Sequence of HTRA2, O43464 (O43464 355-458): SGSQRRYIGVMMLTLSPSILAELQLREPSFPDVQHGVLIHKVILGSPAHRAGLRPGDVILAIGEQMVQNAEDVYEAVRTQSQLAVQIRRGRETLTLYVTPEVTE
Sequence of PDZRN4_1, Q6ZMN7 (Q6ZMN7 213-318): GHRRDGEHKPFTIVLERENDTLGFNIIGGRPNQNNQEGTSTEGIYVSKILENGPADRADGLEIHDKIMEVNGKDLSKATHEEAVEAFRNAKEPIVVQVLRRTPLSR
Sequence of SCRIB_2, Q14160 (Q14160 857-960): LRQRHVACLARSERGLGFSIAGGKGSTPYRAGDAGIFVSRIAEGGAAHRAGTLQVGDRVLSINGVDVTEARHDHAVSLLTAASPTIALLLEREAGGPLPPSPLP
Sequence of LIMK2, P53671 (P53671 143-248): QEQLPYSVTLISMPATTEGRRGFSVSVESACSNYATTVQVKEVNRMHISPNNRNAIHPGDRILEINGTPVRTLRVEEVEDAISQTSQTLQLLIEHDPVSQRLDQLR
Sequence of TJP1_2, Q07157 (Q07157 181-274): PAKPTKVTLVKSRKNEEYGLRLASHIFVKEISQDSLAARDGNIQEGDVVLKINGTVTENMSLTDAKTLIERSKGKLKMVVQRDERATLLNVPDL
Sequence of DLG4_1, P78352 (P78352 62-152): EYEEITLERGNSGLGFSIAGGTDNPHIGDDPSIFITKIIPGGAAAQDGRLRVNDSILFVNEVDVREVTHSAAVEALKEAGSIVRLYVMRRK
Sequence of GIPC2, Q8TF65 (Q8TF65 112-203): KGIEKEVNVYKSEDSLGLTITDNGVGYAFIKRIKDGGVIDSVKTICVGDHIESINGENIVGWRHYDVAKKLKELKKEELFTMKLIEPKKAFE
Sequence of IL16_1, Q14005 (Q14005 210-306): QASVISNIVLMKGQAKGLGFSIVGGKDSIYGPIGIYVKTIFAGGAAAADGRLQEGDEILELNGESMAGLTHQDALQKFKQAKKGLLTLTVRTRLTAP
Sequence of PARD3_3, Q8TEW0 (Q8TEW0 582-685): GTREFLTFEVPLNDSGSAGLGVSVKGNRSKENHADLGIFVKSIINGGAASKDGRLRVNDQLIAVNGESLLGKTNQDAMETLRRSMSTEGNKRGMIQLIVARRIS
Sequence of LNX1_2, Q8TBB1 (Q8TBB1 371-470): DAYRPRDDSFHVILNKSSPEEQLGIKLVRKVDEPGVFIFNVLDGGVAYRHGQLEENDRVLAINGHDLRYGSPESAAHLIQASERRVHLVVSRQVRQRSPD

Turning to SQDPKKPSRV [CBY2, Q8NA61], the pKd (as a rule, the negative decadic logarithm of the Kd, by convention in mol/L) is 3.66 with DLG4_1, P78352 (setting [1]); “below the threshold” in the assay with TJP1_2, Q07157 (setting [1]); “below the threshold” with RAPGEF6, Q8TEU7 (setting [1]); “below the threshold” with NHERF3_3, Q5T2W1 (setting [1]); 3.48 with SNTA1, Q13424 (setting [1]); “below the threshold” with CARD11, Q9BXL7 (setting [1]). Besides, the pKd result with SHANK1, Q9Y566 (setting [1]) was “below the threshold”; with NHERF3_1, Q5T2W1 (setting [1]) it was “below the threshold”; in the assay with GIPC2, Q8TF65 (setting [1]), “below the threshold”; in the assay with TIAM2, Q8IVF5 (setting [1]) it was “below the threshold”; with LIMK2, P53671 (setting [1]), “below the threshold”; with DLG3_2, Q92796 (setting [1]), “below the threshold”. In addition, the pKd entry in the assay with DLG3_3, Q92796 (setting [1]) is “below the threshold”; in the assay with PDZRN4_1, Q6ZMN7 (setting [1]) it was “below the threshold”; with IL16_1, Q14005 (setting [1]), “below the threshold”; with SNTB1, Q13884 (setting [1]), “below the threshold”; with HTRA2, O43464 (setting [1]), “below the threshold”; with SCRIB_2, Q14160 (setting [1]), “below the threshold”. Also, the pKd result with MAST1, Q9Y2H9 (setting [1]) is “below the threshold”; with DLG3_1, Q92796 (setting [1]) it was “below the threshold”; with PARD3_3, Q8TEW0 (setting [1]), “below the threshold”; with SIPA1L2, Q9P2F8 (setting [1]) it was “below the threshold”; in the assay with DFNB31_2, Q9P202 (setting [1]), “below the threshold”; with LNX1_2, Q8TBB1 (setting [1]) it was “below the threshold”.
PSRDRKETSI [RALBP1, Q15311]: the pKd was 3.97 with DLG4_1, P78352 (setting [2]); “below the threshold” in the assay with TJP1_2, Q07157 (setting [2]); “below the threshold” with RAPGEF6, Q8TEU7 (setting [2]); “below the threshold” in the assay with NHERF3_3, Q5T2W1 (setting [2]); 4.06 with SNTA1, Q13424 (setting [2]); “below the threshold” with CARD11, Q9BXL7 (setting [2]). In addition, the pKd result in the assay with SHANK1, Q9Y566 (setting [2]) is “below the threshold”; in the assay with NHERF3_1, Q5T2W1 (setting [2]) it was 3.68; with GIPC2, Q8TF65 (setting [2]), 3.58; in the assay with TIAM2, Q8IVF5 (setting [2]), “below the threshold”; with LIMK2, P53671 (setting [2]), “below the threshold”; in the assay with DLG3_2, Q92796 (setting [2]), 4.35. Moreover, the pKd is 4.77 with DLG3_3, Q92796 (setting [2]); 4.57 with PDZRN4_1, Q6ZMN7 (setting [2]); “below the threshold” with IL16_1, Q14005 (setting [2]); 3.97 in the assay with SNTB1, Q13884 (setting [2]); “below the threshold” in the assay with HTRA2, O43464 (setting [2]); 3.75 with SCRIB_2, Q14160 (setting [2]). For the same molecule, the pKd is 4.56 with MAST1, Q9Y2H9 (setting [2]); 3.3 with DLG3_1, Q92796 (setting [2]); “below the threshold” with PARD3_3, Q8TEW0 (setting [2]); “below the threshold” with SIPA1L2, Q9P2F8 (setting [2]); “below the threshold” in the assay with DFNB31_2, Q9P202 (setting [2]); “below the threshold” with LNX1_2, Q8TBB1 (setting [2]).
Turning to DLDEEEDTHL [PODXL, O00592], the pKd entry in the assay with DLG4_1, P78352 (setting [2]) is “below the threshold”; in the assay with TJP1_2, Q07157 (setting [2]), “below the threshold”; in the assay with RAPGEF6, Q8TEU7 (setting [2]) it was 3.48; with NHERF3_3, Q5T2W1 (setting [2]), “below the threshold”; in the assay with SNTA1, Q13424 (setting [2]), 3.63; in the assay with CARD11, Q9BXL7 (setting [2]), “below the threshold”. The pKd in the assay with SHANK1, Q9Y566 (setting [2]) was 4.95; with NHERF3_1, Q5T2W1 (setting [2]), 4.5; with GIPC2, Q8TF65 (setting [2]), “below the threshold”; in the assay with TIAM2, Q8IVF5 (setting [2]), “below the threshold”; in the assay with LIMK2, P53671 (setting [2]), “below the threshold”; in the assay with DLG3_2, Q92796 (setting [2]) it was “below the threshold”. The pKd result with DLG3_3, Q92796 (setting [2]) is “below the threshold”; with PDZRN4_1, Q6ZMN7 (setting [2]), “below the threshold”; with IL16_1, Q14005 (setting [2]), “below the threshold”; with SNTB1, Q13884 (setting [2]) it was “below the threshold”; with HTRA2, O43464 (setting [2]) it was 3.52; in the assay with SCRIB_2, Q14160 (setting [2]) it was “below the threshold”. The negative logarithm of the Kd (pKd) with MAST1, Q9Y2H9 (setting [2]) is 4.19; with DLG3_1, Q92796 (setting [2]), “below the threshold”; in the assay with PARD3_3, Q8TEW0 (setting [2]) it was 4.22; with SIPA1L2, Q9P2F8 (setting [2]), “below the threshold”; in the assay with DFNB31_2, Q9P202 (setting [2]), “below the threshold”; in the assay with LNX1_2, Q8TBB1 (setting [2]), “below the threshold”.
For the molecule HSATSVHTSV [MTMR1, Q13613], the pKd with DLG4_1, P78352 (setting [3]) was 4.21; with TJP1_2, Q07157 (setting [3]), “below the threshold”; with RAPGEF6, Q8TEU7 (setting [3]) it was “below the threshold”; with NHERF3_3, Q5T2W1 (setting [3]) it was “below the threshold”; in the assay with SNTA1, Q13424 (setting [3]) it was 3.65; with CARD11, Q9BXL7 (setting [3]) it was “below the threshold”. The pKd entry was “below the threshold” in the assay with SHANK1, Q9Y566 (setting [3]); “below the threshold” with NHERF3_1, Q5T2W1 (setting [3]); “below the threshold” in the assay with GIPC2, Q8TF65 (setting [3]); “below the threshold” in the assay with TIAM2, Q8IVF5 (setting [3]); “below the threshold” with LIMK2, P53671 (setting [3]); 4.72 with DLG3_2, Q92796 (setting [3]). Besides, the pKd with DLG3_3, Q92796 (setting [3]) is 3.68; in the assay with PDZRN4_1, Q6ZMN7 (setting [3]) it was “below the threshold”; in the assay with IL16_1, Q14005 (setting [3]), “below the threshold”; with SNTB1, Q13884 (setting [3]) it was 3.78; in the assay with HTRA2, O43464 (setting [3]), “below the threshold”; with SCRIB_2, Q14160 (setting [3]) it was 3.95. In addition, the pKd with MAST1, Q9Y2H9 (setting [3]) was 3.67; with DLG3_1, Q92796 (setting [3]) it was 3.9; with PARD3_3, Q8TEW0 (setting [3]), 3.73; with SIPA1L2, Q9P2F8 (setting [3]) it was “below the threshold”; with DFNB31_2, Q9P202 (setting [3]), “below the threshold”; in the assay with LNX1_2, Q8TBB1 (setting [3]) it was “below the threshold”.

The values above are taken from PMC9482650, “Quantitative fragmentomics allow affinity mapping of interactomes” (Nature Communications, 2022).
